These results are taken from US11499162B2, “Plants having increased tolerance to herbicides” (BASF SE, priority 2016, dated 2022).

The labels stand for the following.
B1: H249V: mutated TriA variant of SEQ ID NO: 2 (protein)
chain: MQTLSIQHGTLVTMDQYRRVLGDSWVHVQDGRIVALGVHAESVPPPADRVIDARGKVVLPGFINAHTHVNQILLRGGPSHGRQLYDWLFNVLYPGQKAMRPEDVAVAVRLYCAEAVRSGITTINDNADSAIYPGNIEAAMAVYGEVGVRVVYARMFFDRMDGRIQGYVDALKARSPQVELCSIMEETAVAKDRITALSDQYHGTAGGRISVWPAPAITPAVTVEGMRWAQAFARDRAVMWTLHMAESDVDERLHWMSPAEYMECYGLLDERLQVAHCVYFDRKDVRLLHRHNVKVASQVVSNAYLGSGVAPVPEMVERGMAVGIGTDDGNCNDSVNMIGDMKFMAHIHRAVHRDADVLTPEKILEMATIDGARSLGMDHEIGSIETGKRADLILLDLRHPQTTPHHHLAATIVFQAYGNEVDTVLIDGNVVMENRRLSFLPPERELAFLEEAQSRATAILQRANMVANPAWRSL
modifications: Pseudomonas
B2: N70V: mutated TriA variant of SEQ ID NO: 2 (protein)
chain: MQTLSIQHGTLVTMDQYRRVLGDSWVHVQDGRIVALGVHAESVPPPADRVIDARGKVVLPGFINAHTHVVQILLRGGPSHGRQLYDWLFNVLYPGQKAMRPEDVAVAVRLYCAEAVRSGITTINDNADSAIYPGNIEAAMAVYGEVGVRVVYARMFFDRMDGRIQGYVDALKARSPQVELCSIMEETAVAKDRITALSDQYHGTAGGRISVWPAPAITPAVTVEGMRWAQAFARDRAVMWTLHMAESDHDERLHWMSPAEYMECYGLLDERLQVAHCVYFDRKDVRLLHRHNVKVASQVVSNAYLGSGVAPVPEMVERGMAVGIGTDDGNCNDSVNMIGDMKFMAHIHRAVHRDADVLTPEKILEMATIDGARSLGMDHEIGSIETGKRADLILLDLRHPQTTPHHHLAATIVFQAYGNEVDTVLIDGNVVMENRRLSFLPPERELAFLEEAQSRATAILQRANMVANPAWRSL
modifications: Pseudomonas
B3: E251D: mutated TriA variant of SEQ ID NO: 2 (protein)
chain: MQTLSIQHGTLVTMDQYRRVLGDSWVHVQDGRIVALGVHAESVPPPADRVIDARGKVVLPGFINAHTHVNQILLRGGPSHGRQLYDWLFNVLYPGQKAMRPEDVAVAVRLYCAEAVRSGITTINDNADSAIYPGNIEAAMAVYGEVGVRVVYARMFFDRMDGRIQGYVDALKARSPQVELCSIMEETAVAKDRITALSDQYHGTAGGRISVWPAPAITPAVTVEGMRWAQAFARDRAVMWTLHMAESDHDDRLHWMSPAEYMECYGLLDERLQVAHCVYFDRKDVRLLHRHNVKVASQVVSNAYLGSGVAPVPEMVERGMAVGIGTDDGNCNDSVNMIGDMKFMAHIHRAVHRDADVLTPEKILEMATIDGARSLGMDHEIGSIETGKRADLILLDLRHPQTTPHHHLAATIVFQAYGNEVDTVLIDGNVVMENRRLSFLPPERELAFLEEAQSRATAILQRANMVANPAWRSL
modifications: Pseudomonas
B4: H249I: mutated TriA variant of SEQ ID NO: 2 (protein)
chain: MQTLSIQHGTLVTMDQYRRVLGDSWVHVQDGRIVALGVHAESVPPPADRVIDARGKVVLPGFINAHTHVNQILLRGGPSHGRQLYDWLFNVLYPGQKAMRPEDVAVAVRLYCAEAVRSGITTINDNADSAIYPGNIEAAMAVYGEVGVRVVYARMFFDRMDGRIQGYVDALKARSPQVELCSIMEETAVAKDRITALSDQYHGTAGGRISVWPAPAITPAVTVEGMRWAQAFARDRAVMWTLHMAESDIDERLHWMSPAEYMECYGLLDERLQVAHCVYFDRKDVRLLHRHNVKVASQVVSNAYLGSGVAPVPEMVERGMAVGIGTDDGNCNDSVNMIGDMKFMAHIHRAVHRDADVLTPEKILEMATIDGARSLGMDHEIGSIETGKRADLILLDLRHPQTTPHHHLAATIVFQAYGNEVDTVLIDGNVVMENRRLSFLPPERELAFLEEAQSRATAILQRANMVANPAWRSL
modifications: Pseudomonas
B5: H249N: mutated TriA variant of SEQ ID NO: 2 (protein)
chain: MQTLSIQHGTLVTMDQYRRVLGDSWVHVQDGRIVALGVHAESVPPPADRVIDARGKVVLPGFINAHTHVNQILLRGGPSHGRQLYDWLFNVLYPGQKAMRPEDVAVAVRLYCAEAVRSGITTINDNADSAIYPGNIEAAMAVYGEVGVRVVYARMFFDRMDGRIQGYVDALKARSPQVELCSIMEETAVAKDRITALSDQYHGTAGGRISVWPAPAITPAVTVEGMRWAQAFARDRAVMWTLHMAESDNDERLHWMSPAEYMECYGLLDERLQVAHCVYFDRKDVRLLHRHNVKVASQVVSNAYLGSGVAPVPEMVERGMAVGIGTDDGNCNDSVNMIGDMKFMAHIHRAVHRDADVLTPEKILEMATIDGARSLGMDHEIGSIETGKRADLILLDLRHPQTTPHHHLAATIVFQAYGNEVDTVLIDGNVVMENRRLSFLPPERELAFLEEAQSRATAILQRANMVANPAWRSL
modifications: Pseudomonas
B6: D250E: mutated TriA variant of SEQ ID NO: 2 (protein)
chain: MQTLSIQHGTLVTMDQYRRVLGDSWVHVQDGRIVALGVHAESVPPPADRVIDARGKVVLPGFINAHTHVNQILLRGGPSHGRQLYDWLFNVLYPGQKAMRPEDVAVAVRLYCAEAVRSGITTINDNADSAIYPGNIEAAMAVYGEVGVRVVYARMFFDRMDGRIQGYVDALKARSPQVELCSIMEETAVAKDRITALSDQYHGTAGGRISVWPAPAITPAVTVEGMRWAQAFARDRAVMWTLHMAESDHEERLHWMSPAEYMECYGLLDERLQVAHCVYFDRKDVRLLHRHNVKVASQVVSNAYLGSGVAPVPEMVERGMAVGIGTDDGNCNDSVNMIGDMKFMAHIHRAVHRDADVLTPEKILEMATIDGARSLGMDHEIGSIETGKRADLILLDLRHPQTTPHHHLAATIVFQAYGNEVDTVLIDGNVVMENRRLSFLPPERELAFLEEAQSRATAILQRANMVANPAWRSL
modifications: Pseudomonas
B7: D250N: mutated TriA variant of SEQ ID NO: 2 (protein)
chain: MQTLSIQHGTLVTMDQYRRVLGDSWVHVQDGRIVALGVHAESVPPPADRVIDARGKVVLPGFINAHTHVNQILLRGGPSHGRQLYDWLFNVLYPGQKAMRPEDVAVAVRLYCAEAVRSGITTINDNADSAIYPGNIEAAMAVYGEVGVRVVYARMFFDRMDGRIQGYVDALKARSPQVELCSIMEETAVAKDRITALSDQYHGTAGGRISVWPAPAITPAVTVEGMRWAQAFARDRAVMWTLHMAESDHNERLHWMSPAEYMECYGLLDERLQVAHCVYFDRKDVRLLHRHNVKVASQVVSNAYLGSGVAPVPEMVERGMAVGIGTDDGNCNDSVNMIGDMKFMAHIHRAVHRDADVLTPEKILEMATIDGARSLGMDHEIGSIETGKRADLILLDLRHPQTTPHHHLAATIVFQAYGNEVDTVLIDGNVVMENRRLSFLPPERELAFLEEAQSRATAILQRANMVANPAWRSL
modifications: Pseudomonas

The data set is classed as biochemical. The note with it: pH 7.2. The method in brief:
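% degradation measured against empty-vector control by UPLC-HR-MS, with product identity confirmed by exact mass and MS-MS. Conditions: 25 mM sodium phosphate pH 7.2, 30 °C, substrates at 1–10 nM. Enzyme source: TriA-expressing E. coli resting cells incubated with azines, melamine or atrazine.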
On to B1, for which the “Degradation in % of 6-cyclopentyl-N4-(2,3,4,5,6-pentafluorophenyl)-1,3,5-triazine-2,4-diamine” value was found to be 0% and the “Degradation in % of Melamine” value is 100%.

For B2, the “Degradation in % of 6-cyclopentyl-N4-(2,3,4,5,6-pentafluorophenyl)-1,3,5-triazine-2,4-diamine” value is 4% and the “Degradation in % of Melamine” value is 0%.

Take B3: the “Degradation in % of 6-cyclopentyl-N4-(2,3,4,5,6-pentafluorophenyl)-1,3,5-triazine-2,4-diamine” value is 35% and the “Degradation in % of Melamine” value is recorded as 100%.

With B4, the “Degradation in % of 6-cyclopentyl-N4-(2,3,4,5,6-pentafluorophenyl)-1,3,5-triazine-2,4-diamine” value is 1% and the “Degradation in % of Melamine” value was found to be 100%.

For the molecule B5, the “Degradation in % of 6-cyclopentyl-N4-(2,3,4,5,6-pentafluorophenyl)-1,3,5-triazine-2,4-diamine” value came to 0% and the “Degradation in % of Melamine” value came to 1%.

As for B6, the “Degradation in % of 6-cyclopentyl-N4-(2,3,4,5,6-pentafluorophenyl)-1,3,5-triazine-2,4-diamine” value was found to be 2% and the “Degradation in % of Melamine” value is reported as 3%.

Consider B7, for which the “Degradation in % of 6-cyclopentyl-N4-(2,3,4,5,6-pentafluorophenyl)-1,3,5-triazine-2,4-diamine” value worked out at 1% and the “Degradation in % of Melamine” value stood at 3%.
